From publication PMC4928834 come the findings set out here.

Data set [1] deals with soluble part of FloA (flotillin A) with 6xHis tag (B. subtilis) (UniProt P54466). As to the kind of experiment: SEC; FloA6His after Ni-NTA on HiLoad 26/600 Superdex 200 pg, 1.5 ml/min, 20 mM HEPES, 200 mM NaCl, 20 mM MgCl2, 20 mM KCl, pH 7.5.
For the next data set, the system named is P54466. As to the kind of experiment: SEC; HMW fraction of FloA-Strep run again on gel filtration undiluted, 3 fold and 5 fold diluted; peak areas measured.
Data set [2] addresses soluble part of FloA (flotillin A) with Strep-tag (B. subtilis) (UniProt P54466). As to the kind of experiment: SEC; FloAstrep after Strep-Tactin on Superose 6 10/300 GL, 0.5 ml/min, 100 mM Tris-Cl, 150 mM NaCl, pH 7.5. (In general: SEC sorts molecules by how far they enter the pores of the column.)

In the case of “soluble part of FloA (flotillin A) with 6xHis tag (from UniProt P54466 56-331) (domain or fragment)”, the stoichiometry N in data set [1] is 2. Turning to “soluble part of FloA (flotillin A) with Strep-tag”, in the data set on P54466, the “percent of the protein in the HMW fraction (5-fold diluted)” value was 82% are in the HMW fraction and 12% in the LMW peak; the “percent of the protein in the HMW fraction (undiluted or 3-fold diluted)” value is “about 90% of the proteins are in the HMW fraction”; the “percent of the protein in the LMW peak (5-fold diluted)” value was 82% are in the HMW fraction and 12% in the LMW peak.

On to “soluble part of FloA (flotillin A) with Strep-tag (from UniProt P54466 56-331) (domain or fragment)”, for which the stoichiometry N in data set [2] stood at 4.

For orientation: stoichiometry N means a count of units in the complex or per binding partner.
